US10472401B2, “Peptides and combination of peptides for use in immunotherapy against ovarian cancer and other cancers” (immatics biotechnologies GmbH, priority 2015, dated 2019)

Molecular target: HLA-A*02:01 (Homo sapiens, UniProt P04439, D140Y/D185E/D98H/E176V/E277Q/G131W/G231S/I119V/I121R/I166T/I218V/L300P/L318F/N151K/N90K/P208A/P217A/Q86G/Q94H/R138H/R169H/T345S)
Test: MHC binding assay (UV-ligand exchange, ELISA of stabilized MHC complexes)
Conditions: MHC class I binding score; binding to HLA-A*02:01 ranged by peptide exchange yield (UV-ligand exchange, ELISA)
Text: Candidate peptides for T cell based therapies according to the present invention were further tested for their MHC binding capacity (affinity). The individual peptide-MHC complexes were produced by UV-ligand exchange, where a UV-sensitive peptide is cleaved upon UV-irradiation, and exchanged with the peptide of interest as analyzed. Only peptide candidates that can effectively bind and stabilize the peptide-receptive MHC molecules prevent dissociation of the MHC complexes. To determine the yield of the exchange reaction, an ELISA was performed based on the detection of the light chain (β2m) of stabilized MHC complexes. The assay was performed as generally described in Rodenko et al. (Rodenko et al., 2006).
96 well MAXISorp plates (NUNC) were coated over night with 2 ug/ml streptavidin in PBS at room temperature, washed 4× and blocked for 1h at 37° C. in 2% BSA containing blocking buffer. […] Peptide-MHC monomers of the UV-exchange reaction were diluted 100 fold in blocking buffer. Samples were incubated for 1h at 37° C., washed four times, incubated with 2 ug/ml HRP conjugated anti-82m for 1h at 37° C., washed again and detected with TMB solution that is stopped with […]. Absorption was measured at 450 nm. Candidate peptides that show a high exchange yield (preferably higher than 50%, most preferred higher than 75%) are generally preferred for a generation and production of antibodies or fragments thereof, and/or T cell receptors or fragments thereof, as they show sufficient avidity to the MHC molecules and prevent dissociation of the MHC complexes.

Substance: 130 (FLWNGEDSALL; listed as Homo sapiens) [compound 130]
- Peptide exchange: ″+++″ (≥50% = +++)

Substance: 279 (ALWGGTQPLL; listed as Homo sapiens) [compound 279]
- Peptide exchange: ″++″ (≥20% = ++)

Substance: 63 (YLLPSGGSVTL; listed as Homo sapiens) [compound 63]
- Peptide exchange: ″++″ (≥20% = ++)

Substance: 531 (YTLPIASSIRL; listed as Homo sapiens) [compound 531]
- Peptide exchange: ″+++″ (≥50% = +++)

Substance: 256 (FLPPEHTIVYI; listed as Homo sapiens) [compound 256]
- Peptide exchange: ″+++″ (≥50% = +++)

Substance: 477 (ALLPASGQIAL; listed as Homo sapiens) [compound 477]
- Peptide exchange: ″+++″ (≥50% = +++)

Substance: 217 (ALIHPVSTV; listed as Homo sapiens) [compound 217]
- Peptide exchange: ″++″ (≥20% = ++)

Substance: 495 (FIFSEKPVFV; listed as Homo sapiens) [compound 495]
- Peptide exchange: ″+++″ (≥50% = +++)

Substance: 147 (SLLEAVSFL; listed as Homo sapiens) [compound 147]
- Peptide exchange: ″+++″ (≥50% = +++)

Substance: 387 (ALFQATAEV; listed as Homo sapiens) [compound 387]
- Peptide exchange: ″++++″ (≥75% = ++++)

Substance: 462 (KLAKQPETV; listed as Homo sapiens) [compound 462]
- Peptide exchange: ″+++″ (≥50% = +++)

Substance: 184 (YLMDINGKMWL; listed as Homo sapiens) [compound 184]
- Peptide exchange: ″+++″ (≥50% = +++)

Substance: 208 (KISPVTFSV; listed as Homo sapiens) [compound 208]
- Peptide exchange: ″+++″ (≥50% = +++)

Substance: 468 (YLRSVGDGETV; listed as Homo sapiens) [compound 468]
- Peptide exchange: ″+++″ (≥50% = +++)

Substance: 124 (ALYETELADA; listed as Homo sapiens) [compound 124]
- Peptide exchange: ″++″ (≥20% = ++)

Substance: 600 (ALAAPDIVPAL; listed as Homo sapiens) [compound 600]
- Peptide exchange: ″+++″ (≥50% = +++)

Substance: 349 (SLTEYLQNV; listed as Homo sapiens) [compound 349]
- Peptide exchange: ″++++″ (≥75% = ++++)

Substance: 262 (LLWGDLIWL; listed as Homo sapiens) [compound 262]
- Peptide exchange: ″+++″ (≥50% = +++)

Substance: 170 (RLQETLSAA; listed as Homo sapiens) [compound 170]
- Peptide exchange: ″+++″ (≥50% = +++)

Substance: 179 (KVLNELYTV; listed as Homo sapiens) [compound 179]
- Peptide exchange: ″+++″ (≥50% = +++)

Substance: 430 (HLYSSIEHLTT; listed as Homo sapiens) [compound 430]
- Peptide exchange: ″+++″ (≥50% = +++)

Substance: 73 (NIFDLQIYV; listed as Homo sapiens) [compound 73]
- Peptide exchange: ″+++″ (≥50% = +++)

Substance: 456 (LLIGHLERV; listed as Homo sapiens) [compound 456]
- Peptide exchange: ″+++″ (≥50% = +++)

Substance: 342 (HIYDKVMTV; listed as Homo sapiens) [compound 342]
- Peptide exchange: ″+++″ (≥50% = +++)

Substance: 185 (FLIDDKGYTL; listed as Homo sapiens) [compound 185]
- Peptide exchange: ″++″ (≥20% = ++)

Substance: 255 (VLASYNLTV; listed as Homo sapiens) [compound 255]
- Peptide exchange: ″+++″ (≥50% = +++)

Substance: 513 (SLWPSPEQL; listed as Homo sapiens) [compound 513]
- Peptide exchange: ″++″ (≥20% = ++)

Substance: 570 (ALANQIPTV; listed as Homo sapiens) [compound 570]
- Peptide exchange: ″++″ (≥20% = ++)

Substance: 521 (MLLTKLPTI; listed as Homo sapiens) [compound 521]
- Peptide exchange: ″+++″ (≥50% = +++)

Substance: 561 (YLQLTQSEL; listed as Homo sapiens) [compound 561]
- Peptide exchange: ″+++″ (≥50% = +++)

Substance: 33 (VLLSLLEKV; listed as Homo sapiens) [compound 33]
- Peptide exchange: ″++″ (≥20% = ++)

Substance: 494 (ALQPEPIKV; listed as Homo sapiens) [compound 494]
- Peptide exchange: ″++″ (≥20% = ++)

Substance: 84 (VTFGEKLLGV; listed as Homo sapiens) [compound 84]
- Peptide exchange: ″++″ (≥20% = ++)

Substance: 588 (SLLPLSHLV; listed as Homo sapiens) [compound 588]
- Peptide exchange: ″+++″ (≥50% = +++)

Substance: 394 (LLAVIGGLVYL; listed as Homo sapiens) [compound 394]
- Peptide exchange: ″+++″ (≥50% = +++)

Substance: 614 (LLLPDQPPYHL; listed as Homo sapiens) [compound 614]
- Peptide exchange: ″+++″ (≥50% = +++)

Substance: 453 (KLLEATSAV; listed as Homo sapiens) [compound 453]
- Peptide exchange: ″++″ (≥20% = ++)

Substance: 559 (VTVPPGPSL; listed as Homo sapiens) [compound 559]
- Peptide exchange: ″++″ (≥20% = ++)

Substance: 450 (FMIDASVHPTL; listed as Homo sapiens) [compound 450]
- Peptide exchange: ″+++″ (≥50% = +++)

Substance: 372 (TMLLNIPLV; listed as Homo sapiens) [compound 372]
- Peptide exchange: ″++″ (≥20% = ++)

Substance: 265 (LLFGGTKTV; listed as Homo sapiens) [compound 265]
- Peptide exchange: ″++″ (≥20% = ++)

Substance: 289 (VLLEIEDLQV; listed as Homo sapiens) [compound 289]
- Peptide exchange: ″++++″ (≥75% = ++++)

Substance: 235 (YLNDLHEVLL; listed as Homo sapiens) [compound 235]
- Peptide exchange: ″++++″ (≥75% = ++++)

Substance: 302 (ALLQEGEVYSA; listed as Homo sapiens) [compound 302]
- Peptide exchange: ″+++″ (≥50% = +++)

Substance: 304 (MTLGQIYYL; listed as Homo sapiens) [compound 304]
- Peptide exchange: ″+++″ (≥50% = +++)

Substance: 449 (KLAEGLDIQL; listed as Homo sapiens) [compound 449]
- Peptide exchange: ″+++″ (≥50% = +++)

Substance: 362 (TLYGLSVLL; listed as Homo sapiens) [compound 362]
- Peptide exchange: ″+++″ (≥50% = +++)

Substance: 382 (ALQNYIKEA; listed as Homo sapiens) [compound 382]
- Peptide exchange: ″++″ (≥20% = ++)

Substance: 311 (RLYTGMHTV; listed as Homo sapiens) [compound 311]
- Peptide exchange: ″+++″ (≥50% = +++)

Substance: 486 (AVMESIQGV; listed as Homo sapiens) [compound 486]
- Peptide exchange: ″+++″ (≥50% = +++)

Substance: 43 (VLSSLEINI; listed as Homo sapiens) [compound 43]
- Peptide exchange: ″++″ (≥20% = ++)

Substance: 623 (YLVEDIQHI; listed as Homo sapiens) [compound 623]
- Peptide exchange: ″+++″ (≥50% = +++)

Substance: 334 (TLTKVLVAL; listed as Homo sapiens) [compound 334]
- Peptide exchange: ″+++″ (≥50% = +++)

Substance: 198 (KTINKVPTV; listed as Homo sapiens) [compound 198]
- Peptide exchange: ″+++″ (≥50% = +++)

Substance: 546 (VMIAGKVAVV; listed as Homo sapiens) [compound 546]
- Peptide exchange: ″+++″ (≥50% = +++)

Substance: 587 (VMNDRLYAI; listed as Homo sapiens) [compound 587]
- Peptide exchange: ″+++″ (≥50% = +++)

Substance: 593 (GLPRFGIEMV; listed as Homo sapiens) [compound 593]
- Peptide exchange: ″+++″ (≥50% = +++)

Substance: 158 (KLFDVDEDGYI; listed as Homo sapiens) [compound 158]
- Peptide exchange: ″+++″ (≥50% = +++)

Substance: 447 (QLVPALAKV; listed as Homo sapiens) [compound 447]
- Peptide exchange: ″++″ (≥20% = ++)

Substance: 551 (KLYESLLPFA; listed as Homo sapiens) [compound 551]
- Peptide exchange: ″+++″ (≥50% = +++)

Substance: 431 (SLVNVVPKL; listed as Homo sapiens) [compound 431]
- Peptide exchange: ″++″ (≥20% = ++)

Substance: 15 (VLLTFKIFL; listed as Homo sapiens) [compound 15]
- Peptide exchange: ″++″ (≥20% = ++)

Substance: 622 (RLLGEEVVRVLQA; listed as Homo sapiens) [compound 622]
- Peptide exchange: ″+++″ (≥50% = +++)

Substance: 341 (SQIALNEKLVNL; listed as Homo sapiens) [compound 341]
- Peptide exchange: ″+++″ (≥50% = +++)

Substance: 351 (SLIPNLRNV; listed as Homo sapiens) [compound 351]
- Peptide exchange: ″+++″ (≥50% = +++)

Substance: 505 (SLAPGDVVRQV; listed as Homo sapiens) [compound 505]
- Peptide exchange: ″++″ (≥20% = ++)

Substance: 230 (ILVDWLVEV; listed as Homo sapiens) [compound 230]
- Peptide exchange: ″+″ (≥10% = +)

Substance: 539 (ALFDAQAQV; listed as Homo sapiens) [compound 539]
- Peptide exchange: ″+++″ (≥50% = +++)

Substance: 322 (TLMTSLPAL; listed as Homo sapiens) [compound 322]
- Peptide exchange: ″+++″ (≥50% = +++)

Substance: 487 (LLINSVFHV; listed as Homo sapiens) [compound 487]
- Peptide exchange: ″+++″ (≥50% = +++)

Substance: 467 (FLAKDFNFL; listed as Homo sapiens) [compound 467]
- Peptide exchange: ″+++″ (≥50% = +++)
